The text below walks through data of PMC2996326, “LaeA Control of Velvet Family Regulatory Proteins for Light-Dependent Development and Fungal Cell-Type Specificity” (PLoS Genetics, 2010).

By stoichiometry N is commonly meant the number of molecules, sites or subunits per partner or assembly.

The data set concerns the molecule itself. As to the kind of experiment: not stated; VelB heterologously expressed in Escherichia coli; data not shown.

B1: VelB expressed in Escherichia coli (natural protein, Aspergillus nidulans, UniProt C8VTS4 1-369, looked up)
chain: MYAVEDRAHSGHHPPPLSMDRIPPPSTMYPSSAGPSAMVSPAGQPEPESLSTVHDGRIWSLQVVQQPIRARMCGFGDKDRRPITPPPCIRLIVKDAQTQKEVDINSLDSSFYVVMADLWNADGTHEVNLVKHSATSPSISTAMSSSYPPPPHPTSSDYPASYQTNPYGQPVGQPVGQPVGYAGVGNYYGGSTQLQYQNAYPNPQAQYYQPMYGGMAQPQMPAAQPVTPGPGGMFTRNLIGCLSASAYRLYDTEDKIGVWFVLQDLSVRTEGIFRLKFSFVNVGKSVSDLPQSDIAEVINKGTAPILASTFSEPFQVFSAKKFPGVIESTPLSKVFANQGIKIPIRKDGVKGQGSRGRHSDEDDGLDNEY
notes: VelB of Aspergillus nidulans, heterologously expressed; construct not described; neither the construct, its tags nor its purification are described; source: heterologous expression in Escherichia coli
B1: the “stoichiometry N” value was determined as 2.
